Measurements taken from the RNAGym collection of RNA variant scans (doi:10.1073/pnas.2313332121).

B1: TPR t1 (parent)
chain: GACCAAUCUGCCCUCAGAGCUCGAGAACAUCUUCGGAUGCAGAGGAGGCAGGCUUCGGUGGCGCGAUAGCGCCAACGUCCUCAACCUCCAAUGCAUCCCACCACAUGAUGAUGCCUGAAGAGCCUUGGUUUUUUG

Variants of: B1
Assay: polymerase ribozyme fitness, log enrichment relative to wild type (log ratio); higher = more active; in vitro selection for triplet polymerase activity
Outline: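 Only genotypes with ≥10 input reads and ≥1 read per output were kept after Illumina sequencing of input and output libraries. These libraries were PCR-built, transcribed mutants of each subunit of a heterodimeric triplet polymerase ribozyme, each put through one triplicate in vitro selection round with frozen incubation at −7 °C, gel excision of extended constructs, streptavidin-bead capture and RT-PCR. Fitness is a logarithmic ratio of genotype enrichment to wild-type enrichment, from inverse-variance-weighted replicate averages, with the logarithm in base 2.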

Row | Variant | polymerase ribozyme fitness (log ratio)
1 | C8A C20U G60A C98U | -0.889
2 | U7A G35A U78G | -4.41
3 | U7G C40U U54C C73A U106A | 1.14
4 | C8A G42U G44A C114U | -1.01
5 | C8G A37U G44A G60C C115A | -0.0408
6 | U7G C15U C20U | -1.35
7 | C8A U54G A105G U112A C123G C124A U132C | -1.56
8 | U7G C22U C101A C114A A118U A119U | -5.29
9 | C8A C115U | -0.595
10 | C8A C115G | -0.0701
11 | C8A C22G G61U A121U | -1.38
12 | U7G U78G C80G G135U | -5.8
13 | U7G G117U | -2.24
14 | C8A G36U U132A | -1.09
15 | C8G A43U U54C C114A A118G | -4.79
16 | C8A A108G | -1.84
17 | C8G A43C A50U C115U G127U | -4.94
18 | U7C G42C C88U C115U U133A | -0.576
19 | C8A G47C C56G C82U U87A C101U G107U C115U A118C | -6.49
20 | U7A G52U G60A G61C C62U | -6.92
21 | C8A C12A C79U C80U C114U | -4.99
22 | U7G C11U A18C G45U C53A | -2.72
23 | U7A G36C G52A U55G | -0.803
24 | U7G A46G C124A | 1.74

Row | Variant | polymerase ribozyme fitness (log ratio)
25 | C8A U9G G39C G69A U78C U92G U106A | -7.09
26 | C8G C13U A16U G71A | -0.033
27 | C8G A41G C53G G93U | -0.406
28 | C8A A37C | 0.0805
29 | U7C C8G | -0.253
30 | U7G U32G C73A C98A | -4.14
31 | U7G C49A C123U | 0.939
32 | U7C C49U A50C G60U G127A | -0.326
33 | C8A G35A G61A C89U A95U U106A | -6.13
34 | U7G A18U C101U | -1.59
35 | U7G A105C G120U | -0.828
36 | C8G C13A C85U G135U | -1.16
37 | U7C G42U G60C G120A C124G G128A | -3.07
38 | C8A G47C | -1.8
39 | C8G A100U U106A U116A | -0.749
40 | C8A C13G G17C C82U | -4
41 | C8A A41U C49U | -1.56
42 | U7C C8G C12U G19C G63A A66U C115A G128C | -4.6
43 | C8A A46C C56G G127A | -3.01
44 | U7C A27U C79U | -3.22
45 | U7A G61C | -1.93
46 | C8A A16C C40U C72A U92G C123U U130A | -3.93
47 | C8A U21A C34G C70A U109G | -5.88
48 | U7G U59G C62U A84C A90U A111U C115A | -5.26

Row | Variant | polymerase ribozyme fitness (log ratio)
49 | C8G C12G U55G G61U G71A | -6.64
50 | C8A U33A G42U U112A C123A | -6.39
51 | U7C A91U C94G | -2.67
52 | C8A G48U C53A C82U U106A A108G | -1.56
53 | C8G A50U | -0.104
54 | U7C G61U | 0.179
55 | U7C C62U | -1.11
56 | C8A U130G U132A | -2.74
57 | U7A U21A G61C C114G | -5.5
58 | C8A C114U U126C | -2.4
59 | U7G C73A C80A G128C | -5.2
60 | U7C G39A | -0.619
61 | C8G A46U G63C | -0.288
62 | C8A C101U G117U | -0.423
63 | U7C C12A C13A G17A A27C C115U | -5.21
64 | U7G C88U G93C | -1.33
65 | U7A U21C | 0.0698
66 | U7C G57U | 0.0649
67 | U7C G57A | -0.108
68 | U7A U21G G35A G52C C114U | -5.47
69 | U7G C8A C56A C124U U129A | -0.245
70 | U7G G51C U55C | -2.32
71 | C8A C12A G39A | -0.403
72 | C8A G45C A50C G57C G93C | -2.56

Row | Variant | polymerase ribozyme fitness (log ratio)
73 | C8G A29U G120U | 0.42
74 | U7G C15A U38C C40G A41U G48U G69A C89A U96G C98U A111G | -7.66
75 | C8A G61U G117U A119U C123U | -0.671
76 | C8A C79G | -1.65
77 | C8A C79A | -0.182
78 | C8A C70U C88U | -0.306
79 | U7G G39A G58A G69U C97U | 0.0234
80 | U7G A16C | -1.37
81 | U7G C15G C49G U112G | -1.33
82 | C8G C13G U54C | 0.758
83 | C8A C12G C64A C123A | -6.53
84 | U7C G135C | -0.63
85 | U7G G51C C115U | -5.78
86 | C8A C11A G51U | -2.89
87 | C8G A46G | 0.594
88 | U7G G10A G19U G113A | -1.32
89 | C8A G35C G71A | -5.94
90 | U7G C49U C80U A111C | -4.73
91 | U7G U132C | 0.108
92 | U7C A18C U78C C82U | -1.52
93 | C8G A50U U54C U106A G117A | -0.842
94 | U7G G93C | -0.742
95 | C8G A29U U55G C56A C94U C124A | -1.05
96 | C8A G52A C98A | -4.9

Row | Variant | polymerase ribozyme fitness (log ratio)
97 | U7G A16C U55G C56U A84G | -4.09
98 | C8A C22U C53G G61A U106A A118G | -4.47
99 | C8G A26G C86G U109C | -5.29
100 | C8A C28U G48C G57U G127C | -3.86
101 | U7G A46U C82U C102A U112A | -0.759
102 | U7G A74C G93U G113A | -1.35
103 | U7G C20U G60C U133G | -1.91
104 | U7G A66C G71U | -1.24
105 | U7C C8U C20A G71A G93U | -5.59
106 | U7G G48U C53U A95C G117A | -1.11
107 | C8G C15A G69A C89G | -5.71
108 | C8G A18C G39C U133G | -2.2
109 | U7G C8A C86U | 0.828
110 | C8A U9G C85G C89A U126G G127C | -2.22
111 | C8A C13U C31A G61U U96A C124G | -5.55
112 | U7A G17U G117A A118G | -2.58
113 | C8A C88A | 0.0973
114 | C8A A43C C86G C123U U129G | -2.96
115 | C8A C12U C13G G69A C98U | -4.08
116 | C8A G93A | -0.248
117 | U7G U33G | -5.33
118 | U7C U21C A83G G120A | 0.428
119 | C8A A50U G52A | -2.23
120 | U7C C22A C82A C89U | -4.93

Row | Variant | polymerase ribozyme fitness (log ratio)
121 | U7C G69A | -2.74
122 | U7C C62A C99G U112G U132C U134A G135U | -7.59
123 | U7C C8G C53G C101A | -0.517
124 | U7A G57A | -0.474
125 | C8A G36U C49G G71U | -1.2
126 | U7C A83G A84C | -1.08
127 | C8G C15U G19A U125A | -2.55
128 | C8A C53G | -0.744
129 | U7G G65A | -4.77
130 | U7C U96C C102A A108U C114U | -5.22
131 | U7C A66U U106C | -1.58
132 | C8A G48C | -0.457
133 | U7G A46C A68C C70U C97U G120U G127U | -5.43
134 | U7C G69C A90G G113C | -3.11
135 | C8A A24G U32A C73G A111G | -4.24
136 | C8A G69C | -1.13
137 | C8A C56A C102A A103U | -3.2
138 | C8A G58C U112C A121G | 1.27
139 | U7C G42C U87A | -1.73
140 | C8A C89A G122U | -0.485
141 | U7G G10U C15A C56A G63C C64A C114A A121U C123G | -6.92
142 | U7G A41U | -0.368
143 | C8G C15U C70U | -0.473
144 | C8A U14A C101G | -1.85

Row | Variant | polymerase ribozyme fitness (log ratio)
145 | U7G A50G U54C G128U | -1.5
146 | U7C C49A G61U A83C U129C | -0.315
147 | U7C G10A C11G G93U | -1.34
148 | U7G G120A | 1.99
149 | C8A G35A C89U A95U U106A | -4.65
150 | C8A G57U A66G C76U A90U | -4.82
151 | U7A G39A G52A | 0.0728
152 | C8A G113C | -1.59
153 | C8A A84U | 0.295
154 | C8G C15A C20U C56A G57U | -1.84
155 | C8A C64G C72U A121G | -6.31
156 | U7A G69C A95G | -0.796
157 | C8A C22G G63U U129G | -3.84
158 | U7C U21G U96G | -1.67
159 | C8A A43U | -1.01
160 | C8A G10U U14G C56A C64U U78A C86A C101U | -2.72
161 | U7C C53G C56A G60A A111G | 0.682
162 | U7G C53A A91U C101G | -4.34
163 | C8A C64U | 0.575
164 | C8G A50G G63A U112A G122A | -1.09
165 | C8G A18U G45A C79U A100U A103C C114U | -4.29
166 | U7A U81G G122A | -5.92
167 | C8A G122A | 0.24
